Patent US7045613 (Amgen, dated 2006)
Blank lines part the entries; values can stand above or below the binder they belong to.

Molecular target: T1, Human IKK-α containing an N-terminal Flag epitope tag (human, UniProt O15111 1-745)
T1 construct: Transiently expressed in 293 cells for coimmunoprecipitation; also called IκB Kinase
T1 sequence: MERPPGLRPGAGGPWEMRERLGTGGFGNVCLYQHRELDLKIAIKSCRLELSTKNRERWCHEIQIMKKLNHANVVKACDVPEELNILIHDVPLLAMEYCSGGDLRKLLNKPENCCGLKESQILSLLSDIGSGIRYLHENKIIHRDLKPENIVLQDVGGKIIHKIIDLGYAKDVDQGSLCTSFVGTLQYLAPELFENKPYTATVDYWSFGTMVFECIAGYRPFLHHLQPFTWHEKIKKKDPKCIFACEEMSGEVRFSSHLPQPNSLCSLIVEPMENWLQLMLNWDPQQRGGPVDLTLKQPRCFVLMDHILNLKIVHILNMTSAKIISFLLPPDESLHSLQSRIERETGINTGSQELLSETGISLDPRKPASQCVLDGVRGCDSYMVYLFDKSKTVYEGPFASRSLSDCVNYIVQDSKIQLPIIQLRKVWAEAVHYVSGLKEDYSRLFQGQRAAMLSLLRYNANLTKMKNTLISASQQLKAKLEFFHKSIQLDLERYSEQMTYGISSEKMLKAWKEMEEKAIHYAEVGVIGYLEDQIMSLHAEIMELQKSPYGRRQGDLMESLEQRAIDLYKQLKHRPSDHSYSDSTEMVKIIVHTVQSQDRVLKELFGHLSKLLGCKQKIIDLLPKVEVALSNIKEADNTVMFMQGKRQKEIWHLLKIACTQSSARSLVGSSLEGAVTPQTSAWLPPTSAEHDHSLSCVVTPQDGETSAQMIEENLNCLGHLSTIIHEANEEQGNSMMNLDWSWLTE
Experiment: coimmunoprecipitation from 293 cell lysates, anti-Flag IP, anti-HA immunoblot
Description: Human IKK-α containing an N-terminal Flag epitope tag was transiently coexpressed in 293 human embryonic kidney cells with Myc epitope-tagged NIK or HA epitope-tagged TRAF proteins. Cell lysates were immunoprecipitated using a monoclonal antibody against the Flag epitope, and coprecipitating NIK or TRAF proteins were detected by immunoblot analysis with an anti-Myc or anti-HA monoclonal antibodies.

binding result: no binding
B1: HA epitope-tagged TRAF2 (other, UniProt Q12933 1-501, looked up, not shown: small tags and cut ends)
chain: MAAASVTPPGSLELLQPGFSKTLLGTKLEAKYLCSACRNVLRRPFQAQCGHRYCSFCLASILSSGPQNCAACVHEGIYEEGISILESSSAFPDNAARREVESLPAVCPSDGCTWKGTLKEYESCHEGRCPLMLTECPACKGLVRLGEKERHLEHECPERSLSCRHCRAPCCGADVKAHHEVCPKFPLTCDGCGKKKIPREKFQDHVKTCGKCRVPCRFHAIGCLETVEGEKQQEHEVQWLREHLAMLLSSVLEAKPLLGDQSHAGSELLQRCESLEKKTATFENIVCVLNREVERVAMTAEACSRQHRLDQDKIEALSSKVQQLERSIGLKDLAMADLEQKVLEMEASTYDGVFIWKISDFARKRQEAVAGRIPAIFSPAFYTSRYGYKMCLRIYLNGDGTGRGTHLSLFFVVMKGPNDALLRWPFNQKVTLMLLDQNNREHVIDAFRPDVTSSSFQRPVNDMNIASGCPLFCPVSKMEAKNSYVRDDAIFIKAIVDLTGL
notes: Transiently coexpressed in 293 cells

binding result: no binding
B2: HA epitope-tagged TRAF3 (other, UniProt Q13114 1-568, looked up, not shown: small tags and cut ends)
chain: MESSKKMDSPGALQTNPPLKLHTDRSAGTPVFVPEQGGYKEKFVKTVEDKYKCEKCHLVLCSPKQTECGHRFCESCMAALLSSSSPKCTACQESIVKDKVFKDNCCKREILALQIYCRNESRGCAEQLMLGHLLVHLKNDCHFEELPCVRPDCKEKVLRKDLRDHVEKACKYREATCSHCKSQVPMIALQKHEDTDCPCVVVSCPHKCSVQTLLRSELSAHLSECVNAPSTCSFKRYGCVFQGTNQQIKAHEASSAVQHVNLLKEWSNSLEKKVSLLQNESVEKNKSIQSLHNQICSFEIEIERQKEMLRNNESKILHLQRVIDSQAEKLKELDKEIRPFRQNWEEADSMKSSVESLQNRVTELESVDKSAGQVARNTGLLESQLSRHDQMLSVHDIRLADMDLRFQVLETASYNGVLIWKIRDYKRRKQEAVMGKTLSLYSQPFYTGYFGYKMCARVYLNGDGMGKGTHLSLFFVIMRGEYDALLPWPFKQKVTLMLMDQGSSRRHLGDAFKPDPNSSSFKKPTGEMNIASGCPVFVAQTVLENGTYIKDDTIFIKVIVDTSDLPDP
notes: as for B1
